According to the DeepSol protein solubility set:

Assay: soluble on expression in E. coli; label from the status in PepcDB or PDB records

Row | Sequence | soluble on expression in E. coli
1 | MPGKLTATILTRNEAANIGDCIDSLAQLADEVIVLDSGSTDATRDIARARGANVIEDDGPWPGFGPQKNRALDRATGEWVLSIDADERVPPELAQEIRTAMARADADAYAIPRLSQFCGAWVHHSGWRPDHVIRLFRRGKARFSENLVHESLQVTGNVARLRTSLLHYSYTSMDQVHRKSAQYAEAGARDLTQRGKHIGALSPVLHGTWAFVRTLVLRRGFLDGGTGLAIARMNATVSYRKYRRARELASGANHRPLEHHHHHH | not soluble
2 | MAHHHHHHMAAFKPYRFIIFDQQIKNNQFYKSIITQLNLSLLCKEIYLNESFSCYQYEKLFLKKLVYYSFNNLGNNLKAREIKCSGHSSVDTGEHKLQQLINNVNKNENKNININKNINKNINKNVNINNADHNKCSDNSSDYHNFYENECMNNLNLINDLGDRHKNHPLYNVMMKNKKKELTTQSDINKLVSFHIYDNKNEKTFKNILSLNDTYNIDHMNILCLNNYKPIFNMLENYSINNKRISIYYPFYIINDDKNNKPQSNLYTKVADYCYNIVSDILPLNYKNINLSDIIKAIIINTELCQNEGNERMEVLKFMDIMDIIGKN | soluble
3 | MSLGSQTDGSPAGGWPALNAVNKHLLHQHVLVKGNRTLLSMNKPGGFDCPSCSWPDPKKPHTFEYCENGAKALAWESTKKRVTPEFFARHTVSELATWSDHDLEKQGRIAEPMRYDAASDKYLPVTWDEAFAEIGEELRQLSDPWKLELYTSGRTSNEAAFLYQLFGRLYGMANFPDCSNMCHETTTVALPESIGVGKGTTTLEDFENADAIFIIGQNPGSNSPRMMSELHAAAKRGASIISFNPLREKALVRFASPQDPRDMLSLHGVEISSQYHQVRIGGDMIALQGVCKAVIEADDVARREHLPRVLDVAFIEEHTHGFEQYADYCRQLPWDLIESHSGLTRQAIEDVAAVYRRSERVICCWGMGVTQHKRGGDAVQQIINLLLLRGNIGKLGAGACPVRGHSNVQGDRTMGIYEKAGEPFLASMSKVFGFEASRRKGHAVAETCEALLRGEVEALISMGGNFFRAIPDIDAICPTVSRLKMTVLVNTKLNRSATVHGQKAFLLPCVARSERDLQNGVAQTITVEDSMSIVHGSTGMLEPASKHLISEVAIIAGIAKATLAPNPNVDWDSYVGDYARIRDKIEEVLPEQFYDFNRRILEPGGFRLPNAASERKWDTESGKANFLFTEGIYDEDDTPPGAAHLQLMTIRSHDQFNTTVYSNDDRYRDIFGDRMVVMLNPQDIERLGLKAGDYIEFQTALDLTTPRRAPGFKVIAYDVPPGCCAAYYPETNGLLPLANRDSRSNTPAAKSIPVNLVRMSPEGAQVALEREGHHHHHH | soluble
4 | MAEILERSGYLVKVRVEVPADRVKASYEALLKDLASRVRVPGFRPGKAPLKVVEARLGREALLQDLKERLVEETYPEAVRELGLSPVAARVVEQDLSEGEGFRYVAEVENYPEVRLPDWRSFALEVSPPEVTEEMVEKALEELRQRYAELVPVEREAQEKDHLFVRTEEGAEFPIDLAKALPHVREALLGKKAGDVVMVPVLNDKGEKVREVRTEVLEVKTLKLPELDEEFAKTLEAESLEDLKNRVRESLKRQAERAYEEARERAFLEKLAEGLEVEIPPSMLRAEERHLLEHLAEDLYRQGISLEAYLEALKEKGELEKFQEDLRKEAEKRVRIALAREKLAEELNPEVSEEEWQAYLQAAARAYGVAVQDLRRQFGEEGLARLKERLRQDKAVQEALKALG | soluble
5 | VAESKLVIGDRSFASRLIMGTGGATNLAVLEQALIASGTELTTVAIRRVDADGGTGLLDLLNRLGITPLPNTAGSRSAAEAVLTAQLAREALNTNWVKLEVIADERTLWPDAVELVRAAEQLVDDGFVVLPYTTDDPVLARRLEDTGCAAVMPLGSPIGTGLGIANPHNIEMIVAGARVPVVLDAGIGTASDAALAMELGCDAVLLASAVTRAADPPAMAAAMAAAVTAGYLARCAGRIPKRFWAQASSPAR | soluble
6 | MAASTSSSSSSSSSSLSSPSPCTWRYMTFTSFHGPDVRNTFLSHLRKQFNTNGITMFDDQRMERSQTLAPTLTQAIRESKIYIVLLSKNYASSSWCLDELLEILNCKEKRGQRVMTIFYGVNPSDVRKQTGEFGIAFNETCARKTEEERRKWSHALTCVGNITGVHVQDRDDEANMIEKIATDVSEKLNATESKDFDEMVGIKAHLTKIESLLSLDYDKVKIVGISGPAGIGKSTIARALHNLLSSSFHLSCFMENLISQSNPHSSLEYSSKLSLQEQLLSQVLNEKDIRIRHLGAIQERLHDQRVLIILDDVTSLEQLEVLANIKWYGPGSRIIVITKKKDILVQHGICDIYHVGFPTDADALKIFCLSAYRQTSPPDGSMKIHECEMFIKICGNLPLHLHVLGSALRGRSYGRVQSLCNLVSLADFV | not soluble
7 | MCAVLGDNSVSYNTMKFWFEKIKKKNYDLDDKPRSGRPRLDIDEDISRALEDDPRSMSREISATLKRPHTTIINHLHESGRVPKFGQLVPHNLSDSQKNLRCDLSLSLLTRKRTTDWVKDITTGDEKWVLYVNHTRKKQWVPVEEHAEPDLKGELHEKKVLLSIWWDSMGVIFRELLPDGATINADLYCIQLEKVVHAHQLHRPRGSKLLLLHDNARPHTALKTRQKLQTLGIEVLPHPPYSPDLAPTDYHLFRSLQNHLAGQKFHDRKAVETWLDDFFASKSQEFYAEGIAQLPLRWQEVIDTNGEYITH | not soluble
8 | MTYIAPEESAFGVGFFERLEANAKPMSLTRGPDAWDVLESIKRNVSNILNTRIGGAQSAPHLGLVDFNDATLETLDLSVRIKLAIQQCLERYEPRLTRVLVRADQDSFNPLTLRFHITATINSEALHEKVQFSLLLDQSRKYRVF | not soluble
9 | MGSDKIHHHHHHMNILEYENYHEDKTHVELTFPYNTYLCSIPLDFSGVPLHWHDDMELIYIKKGCGHISVDFKEYHVTAPSLVLILPGQLHSIDQYMDESMEYENIIFSLSMLLPGKYDYTKEDFLTPLLAGRFTVPTVFTPVYPYYEDVVAPIDACDEICKTMPQGYQLYIKSKLYEFFFVLDNRCRNLTKPLKSKKTLDKMKVVLKYVENNYADKISIADIADVAGFSESHFMRYFKETMGTSFVDYLKDYRLTMAARLLQSSDSSVLSISGEVGFESLSYFNRAFKKHYGMTPLQYRKGS | not soluble
10 | MGSDKIHHHHHHMRVNSTDLQNAFGKYLSLLEKEDIIITKNGRSVAKLLRYNEPDYFLVHEESKNYKTTKRISYEEYMDLVDSSDQRYELIDGENYLLATPSFKHQVVVNEISGHFYNYFRGKSCRSLTSPFDVRLFGFATKFEEDPNVVQPDVVVICDLDKINEANKYEGIPSLIVEVLSPSTKGKDMVMKLNLYMKSGVLEYWVVDMESKSILQYSFSPERDIDSLKSLGEEDTIESSAFAGLKILLGEIFAEI | not soluble
11 | QVQLQESGPGLVAPSQSLSITCTVSGFSLTGYGVNWVRQPPGKGLEWLGMIWGDGNTDYNSALKSRLSISKDNSKSQVFLKMNSLHTDDTARYYCARERDFRLDYWGQGTTLTVSS | soluble
12 | MGSDKIHHHHHHMTNLTSTHEVLAIGRLGVDIYPLQSGVGLADVQSFGKYLGGSAANVSVAAARHGHNSALLSRVGNDPFGEYLLAELERLGVDNQYVATDQTFKTPVTFCEIFPPDDFPLYFYREPKAPDLNIESADVSLDDVREADILWFTLTGFSEEPSRGTHREILTTRANRRHTIFDLDYRPMFWESPEEATKQAEWALQHSTVAVGNKEECEIAVGETEPERAGRALLERGVELAIVKQGPKGVMAMTKDETVEVPPFFVDVINGLGAGDAFGGALCHGLLSEWPLEKVLRFANTAGALVASRLECSTAMPTTDEVEASLNQKV | not soluble
13 | GHMHTPFIVALDFPSKQEVERFLRPFAGTPLFVKVGMELYYQEGPAIVAFLKEQGHAVFLDLKLHDIPNTVKQAMKGLARVGADLVNVHAAGGRRMMEAAIEGLDAGTPSGRMRPRCIAVTQLTSTDERMLHEELWISRPLVETVAHYAALAKESGLDGVVCSANEAAFIKERCGASFLAVTPGIRFADDAAHDQVRVVTPRKARALGSDYIVIGRSLTRAADPLRTYARLQHEWNGGERESTTPT | soluble
14 | MGSDKIHHHHHHMTAGGLHNGSGGMESARHCRELVERWLADGSFDARLPEVVRLRGVLQPEQYHAEGDAWTHTMLAMEAVPDDADPRVFWGVLLHDIGKAETTAFIKGRWRSWGHAEAGAGEVSAIMTRLGFPHLAADVTWLVKHHTFHFSWNLTPGARLSPKQRRFMEHPLFPLLLEVCDADAAGSRGGSDKGVKIGQLADMYADVTKGWADS | not soluble
